Molecular target: S107-encoded IgG (monoclonal antibody bound by the Fab-binding site of SpA)
Experiment: ELISA

monomeric domain D′ of SpA (domain or fragment)
Fab-binding (relative activity in the inhibition immunoassay): 0.01 M

From paper PMC1887708
